The target in the experiment is MYC-LRRK2 (leucine rich repeat kinase 2), wild type (human, UniProt Q5S007 1-2527). Briefly: co-IP.
Chain of MYC-LRRK2 (leucine rich repeat kinase 2), wild type (Q5S007 whole entry): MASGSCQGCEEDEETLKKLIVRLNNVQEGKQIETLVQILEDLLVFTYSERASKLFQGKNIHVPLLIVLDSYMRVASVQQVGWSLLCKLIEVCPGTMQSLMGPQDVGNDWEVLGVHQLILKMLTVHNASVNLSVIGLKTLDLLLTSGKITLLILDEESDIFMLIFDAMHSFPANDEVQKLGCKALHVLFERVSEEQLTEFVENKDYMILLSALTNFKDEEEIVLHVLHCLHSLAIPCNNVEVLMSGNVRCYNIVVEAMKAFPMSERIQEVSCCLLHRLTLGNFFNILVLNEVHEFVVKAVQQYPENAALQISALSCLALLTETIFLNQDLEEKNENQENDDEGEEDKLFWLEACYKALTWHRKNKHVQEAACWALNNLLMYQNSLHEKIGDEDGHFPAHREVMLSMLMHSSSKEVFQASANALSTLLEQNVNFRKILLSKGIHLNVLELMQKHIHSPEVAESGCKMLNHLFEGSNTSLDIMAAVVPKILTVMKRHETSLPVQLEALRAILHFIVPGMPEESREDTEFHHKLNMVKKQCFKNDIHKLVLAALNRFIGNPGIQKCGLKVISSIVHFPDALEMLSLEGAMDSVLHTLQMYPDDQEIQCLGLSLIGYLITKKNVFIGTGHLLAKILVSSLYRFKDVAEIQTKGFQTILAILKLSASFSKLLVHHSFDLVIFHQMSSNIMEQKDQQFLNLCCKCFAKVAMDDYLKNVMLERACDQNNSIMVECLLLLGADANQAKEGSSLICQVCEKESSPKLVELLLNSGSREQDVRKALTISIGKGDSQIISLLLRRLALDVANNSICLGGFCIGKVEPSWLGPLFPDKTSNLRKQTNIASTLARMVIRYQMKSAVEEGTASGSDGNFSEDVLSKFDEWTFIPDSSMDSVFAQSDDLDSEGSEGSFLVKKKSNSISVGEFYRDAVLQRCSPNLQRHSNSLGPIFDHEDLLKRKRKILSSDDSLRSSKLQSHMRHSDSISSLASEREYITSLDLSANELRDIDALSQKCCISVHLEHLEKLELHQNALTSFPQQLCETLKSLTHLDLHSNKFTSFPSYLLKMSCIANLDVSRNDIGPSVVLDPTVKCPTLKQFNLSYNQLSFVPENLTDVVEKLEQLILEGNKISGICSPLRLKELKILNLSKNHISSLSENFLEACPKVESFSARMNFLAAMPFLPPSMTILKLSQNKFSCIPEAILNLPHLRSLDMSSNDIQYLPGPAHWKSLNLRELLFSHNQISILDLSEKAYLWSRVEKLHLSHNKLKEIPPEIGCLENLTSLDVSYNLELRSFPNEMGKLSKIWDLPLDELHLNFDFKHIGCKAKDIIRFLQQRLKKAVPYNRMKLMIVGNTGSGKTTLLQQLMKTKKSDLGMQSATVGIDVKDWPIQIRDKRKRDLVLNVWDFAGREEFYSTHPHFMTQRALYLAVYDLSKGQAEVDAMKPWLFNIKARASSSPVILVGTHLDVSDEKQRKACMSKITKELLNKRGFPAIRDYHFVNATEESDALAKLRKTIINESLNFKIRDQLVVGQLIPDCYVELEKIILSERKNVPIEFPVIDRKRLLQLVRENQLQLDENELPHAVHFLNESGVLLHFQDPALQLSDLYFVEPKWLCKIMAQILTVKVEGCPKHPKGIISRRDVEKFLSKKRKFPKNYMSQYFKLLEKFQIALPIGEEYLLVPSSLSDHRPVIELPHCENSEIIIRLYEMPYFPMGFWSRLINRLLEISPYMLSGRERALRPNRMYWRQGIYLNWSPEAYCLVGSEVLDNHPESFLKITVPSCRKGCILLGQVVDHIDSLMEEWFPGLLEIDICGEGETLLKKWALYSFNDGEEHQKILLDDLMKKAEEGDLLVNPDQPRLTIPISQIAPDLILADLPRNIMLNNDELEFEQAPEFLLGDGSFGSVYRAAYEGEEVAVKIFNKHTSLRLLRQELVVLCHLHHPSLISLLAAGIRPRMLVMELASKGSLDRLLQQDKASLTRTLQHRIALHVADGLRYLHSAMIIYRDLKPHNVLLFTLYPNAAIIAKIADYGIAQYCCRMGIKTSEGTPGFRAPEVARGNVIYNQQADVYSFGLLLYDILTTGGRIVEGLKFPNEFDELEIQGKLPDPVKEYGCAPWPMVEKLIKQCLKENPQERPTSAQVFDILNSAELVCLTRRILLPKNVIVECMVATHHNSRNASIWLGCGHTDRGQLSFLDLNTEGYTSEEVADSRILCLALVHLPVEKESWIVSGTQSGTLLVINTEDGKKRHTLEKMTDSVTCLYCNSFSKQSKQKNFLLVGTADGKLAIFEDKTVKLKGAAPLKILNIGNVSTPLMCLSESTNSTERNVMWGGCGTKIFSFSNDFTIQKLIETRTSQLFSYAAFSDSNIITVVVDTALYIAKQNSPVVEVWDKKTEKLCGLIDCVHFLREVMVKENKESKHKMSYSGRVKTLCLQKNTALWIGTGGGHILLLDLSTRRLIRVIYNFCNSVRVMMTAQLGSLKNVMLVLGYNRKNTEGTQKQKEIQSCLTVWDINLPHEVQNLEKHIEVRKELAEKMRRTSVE

B1: GST-AP2M1, recombinant (natural protein)
chain: MIGGLFIYNHKGEVLISRVYRDDIGRNAVDAFRVNVIHARQQVRSPVTNIARTSFFHVKRSNIWLAAVTKQNVNAAMVFEFLYKMCDVMAAYFGKISEENIKNNFVLIYELLDEILDFGYPQNSETGALKTFITQQGIKSQHQTKEEQSQITSQVTGQIGWRREGIKYRRNELFLDVLESVNLLMSPQGQVLSAHVSGRVVMKSYLSGMPECKFGMNDKIVIEKQGKGTADETSKSGKQSIAIDDCTFHQCVRLSKFDSERSISFIPPDGEFELMRYRTTKDIILPFRVIPLVREVGRTKLEVKVVIKSNFKPSLLAQKIEVRIPTPLNTSGVQVICMKGKAKYKASENAIVWKIKRMAGMKESQISAEIELLPTNDKKKWARPPISMNFEVPFAPSGLKVRYLKVFEPKLNYSDHDVIKWVRYIGRSGIYETRC
Consider B1, for which the binding result is listed as “binds”.
